Data from US20120178701A1 (PALATIN TECHNOLOGIES, published 2012).
Bridge positions count the residues as written; N and C are the ends. Square brackets hold non-standard residues; d marks the D form. * marks the point of attachment. Aad = N[C@@H](CCCC(=O)O)C(=O)O; Orn = NCCC[C@H](N)C(=O)O; Dab = NCC[C@H](N)C(=O)O; NHcPr = C1CC1N*

Columns and labels:
[1] = molecular target: T1, human recombinant melanocortin-4 receptor (human, UniProt P32245 1-332); test: competitive inhibition of Eu-NDP-α-MSH (TRF), hMC4-R HEK-293 membranes
T1 construct: whole, on cells; cAMP assays used the whole cells; also called hMC4-R; MC4-R
T1 sequence (P32245 whole entry): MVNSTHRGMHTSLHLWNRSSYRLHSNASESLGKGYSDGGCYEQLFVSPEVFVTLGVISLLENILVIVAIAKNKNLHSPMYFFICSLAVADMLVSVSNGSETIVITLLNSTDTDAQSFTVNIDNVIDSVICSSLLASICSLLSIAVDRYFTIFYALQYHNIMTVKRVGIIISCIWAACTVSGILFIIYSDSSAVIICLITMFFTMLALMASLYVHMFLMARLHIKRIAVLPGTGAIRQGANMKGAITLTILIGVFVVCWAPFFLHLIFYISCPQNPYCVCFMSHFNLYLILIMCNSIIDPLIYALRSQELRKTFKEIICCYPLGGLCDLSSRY
Method: After incubation for 90 minutes at 37° C., the reaction was stopped by filtration over AcroWell 96-well filter plates (Pall Life Sciences). The filter plates were washed 4 times with 200 μL of ice-cold phosphate-buffered saline. DELFIA Enhancement solution (PerkinElmer Life Sciences) was added to each well. The plates were incubated on a shaker for 15 minutes and read at 340 nm excitation and 615 nm emission wavelengths. Each assay was conducted in duplicate and mean values were utilized. Ki values were determined by curve-fitting with Graph-Pad Prism® software using a one-site fixed-slope competition binding model.
(§1) 9.1 Peptides of the following structures were synthesized by the general methods described above, and averaged MC4-R Ki values for peptides were determined as indicated. […] Ki values marked “ND” were not determined.

[2] = molecular target: T2, human recombinant melanocortin-3 receptor (human, UniProt P41968 1-323); test: competitive binding vs Eu-labeled NDP-α-MSH
T2 construct: whole, on cells; Membrane homogenates of HEK-293 cells expressing the receptor; also called hMC3-R; MC3-R
T2 sequence (P41968 whole entry): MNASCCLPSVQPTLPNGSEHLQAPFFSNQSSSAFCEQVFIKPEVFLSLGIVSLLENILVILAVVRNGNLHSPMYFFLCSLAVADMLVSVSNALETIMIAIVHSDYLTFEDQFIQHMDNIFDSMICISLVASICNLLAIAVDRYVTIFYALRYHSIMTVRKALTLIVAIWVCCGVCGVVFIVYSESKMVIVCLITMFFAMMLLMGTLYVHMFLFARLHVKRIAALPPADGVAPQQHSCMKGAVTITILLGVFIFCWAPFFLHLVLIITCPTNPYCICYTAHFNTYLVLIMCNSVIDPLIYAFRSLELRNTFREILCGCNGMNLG

[3] = molecular target: T3, endogenous MC1-R of B-16 mouse melanoma cells (mouse, UniProt Q01727 1-315); test: competitive binding vs Eu-labeled NDP-α-MSH
T3 construct: whole, on cells; membrane homogenates; also called mouse B16 MC1-R
T3 sequence (Q01727 whole entry): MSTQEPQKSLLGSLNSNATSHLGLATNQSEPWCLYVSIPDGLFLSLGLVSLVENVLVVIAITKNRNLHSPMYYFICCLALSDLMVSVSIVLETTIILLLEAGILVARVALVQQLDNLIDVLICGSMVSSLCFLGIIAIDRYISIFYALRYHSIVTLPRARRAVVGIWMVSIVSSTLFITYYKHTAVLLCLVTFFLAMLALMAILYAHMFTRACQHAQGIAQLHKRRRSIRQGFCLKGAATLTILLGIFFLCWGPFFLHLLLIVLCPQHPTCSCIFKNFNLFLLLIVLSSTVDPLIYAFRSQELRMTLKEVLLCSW

[4] = molecular target: T3, endogenous MC1-R of B-16 mouse melanoma …; test: competitive binding vs [I125]-NDP-α-MSH
Method: (§2) After incubation for 60 minutes at 37° C., the assay mixture was filtered and the membranes washed three times with ice-cold buffer. Filters were dried and counted in a gamma counter for bound radioactivity. […] Maximal specific binding (100%) was defined as the difference in radioactivity (cpm) bound to cell membranes in the absence and presence of 1 μM NDP-α-MSH. […] Each assay was conducted in triplicate and the actual mean values are described, with results less than 0% reported as 0%. Ki values for test peptides of the present invention were determined using Graph-Pad Prism® curve-fitting software.

[5] = molecular target: T1, human recombinant melanocortin-4 …; test: cell-based or functional assay
[6] = molecular target: T2, human recombinant melanocortin-3 …; test: competitive binding vs [I125]-NDP-α-MSH
Method: as §2

[7] = molecular target: T1, human recombinant melanocortin-4 …; test: competitive inhibition of [I125]-NDP-α-MSH, hMC4-R HEK-293 membranes
Method: (§3) A competitive inhibition binding assay is performed using membrane homogenates prepared from HEK-293 cells that express recombinant hMC4-R, hMC3-R, or hMC5-R, and from B-16 mouse melanoma cells (containing endogenous MC1-R). In some instances, HEK-293 cells that express recombinant hMC1-R were employed. In the examples that follow, all MC3-R, MC4-R and MC5-R values are for human recombinant receptors. […] Membrane homogenates were incubated with 0.2 nM (for hMC4-R) 0.4 nM (for MC3-R and MC5-R) or 0.1 nM (for mouse B16 MC1-R or hMC1-R) [I¹²⁵]-NDP-α-MSH (Perkin Elmer) and increasing concentrations of test peptides of the present invention in buffer containing 25 mM HEPES buffer (pH 7.5) with 100 mM NaCl, 2 mM CaCl₂, 2 mM MgCl₂, 0.3 mM 1,10-phenanthroline, and 0.2% bovine serum albumin. After incubation for 60 minutes at 37° C., the assay mixture was filtered and the membranes washed three times with ice-cold buffer. Filters were dried and counted in a gamma counter for bound radioactivity. […] Maximal specific binding (100%) was defined as the difference in radioactivity (cpm) bound to cell membranes in the absence and presence of 1 μM NDP-α-MSH. […] Each assay was conducted in triplicate and the actual mean values are described, with results less than 0% reported as 0%. Ki values for test peptides of the present invention were determined using Graph-Pad Prism® curve-fitting software.
as §1

[8] = molecular target: T1, human recombinant melanocortin-4 …; test: competitive inhibition of labelled NDP-α-MSH, hMC4-R membranes
[9] = molecular target: T4, human recombinant melanocortin-1 receptor (human, UniProt Q01726 1-317); test: competitive inhibition of labelled NDP-α-MSH, hMC1-R membranes
T4 construct: whole, on cells; membrane homogenates of HEK-293 cells; also called hMC1-R
T4 sequence (Q01726 whole entry): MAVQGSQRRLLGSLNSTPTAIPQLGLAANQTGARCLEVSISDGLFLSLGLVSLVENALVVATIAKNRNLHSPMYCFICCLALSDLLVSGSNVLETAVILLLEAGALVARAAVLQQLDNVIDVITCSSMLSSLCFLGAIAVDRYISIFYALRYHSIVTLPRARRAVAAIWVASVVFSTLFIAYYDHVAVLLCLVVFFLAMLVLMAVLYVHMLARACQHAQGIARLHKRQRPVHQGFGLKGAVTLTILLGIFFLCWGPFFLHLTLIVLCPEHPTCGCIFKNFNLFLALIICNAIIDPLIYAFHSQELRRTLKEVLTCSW
Method: as §3

[10] = molecular target: T1, human recombinant melanocortin-4 …; test: ratio of Ki values, hMC1-R as reference
[11] = molecular target: T4, human recombinant melanocortin-1 …; test: cell-based or functional assay
[12] = molecular target: T1, human recombinant melanocortin-4 …; test: cell-based or functional assay; remark: listed apart in the source

Row | Binder | Ki [7] [nM] | Ki [8] [nM] | Ki [9] [nM] | hMC1-R EC50 [11] [nM] | hMC1-R Emax (%) [11] [%] | hMC4-R EC50 [12] [nM] | hMC4-R Emax (%) [12] [%] | also measured
1 | Ac-RD[Pro(4R-3-Cl-Bzl)][dF]RWK-NH2 (lactam 2-7, also called peptide No. 124) [Ac-Arg-cyclo(Asp-Pro(4R-3-Cl-Bzl)-D-Phe-Arg-Trp-Lys)-NH2] | – | – | – | – | – | – | – | Ki [1]: 19 nM
2 | Ac-RDH[dF]RWK-NH2 (lactam 2-7, also called peptide No. 1) [Ac-Arg-cyclo(Asp-His-D-Phe-Arg-Trp-Lys)-NH2] | – | – | – | – | – | – | – | Ki [2]: 103 nM; Ki [3]: 4 nM; Ki [4]: 3 nM; intrinsic activity (cAMP; NDP-α-MSH = 100%) [5]: 91%
3 | Ac-RDQ[dF]RWK-NH2 (lactam 2-7, any difference is only in the drawings; also called peptide No. 32) [Ac-Arg-cyclo(Asp-Gln-D-Phe-Arg-Trp-Lys)-NH2] | – | – | – | – | – | – | – | Ki [3]: 673 nM; Ki [6]: 340 nM; Ki [4]: 133 nM; EC50 (cAMP) [5]: 17 nM; intrinsic activity (cAMP; NDP-α-MSH = 100%) [5]: 98%
4 | RXQFRWX (N-acetyl; X2 = Dab; D-Phe 4; X7 = hGlu; side-chain lactam Dab2-hGlu7; C-terminal amide, also called peptide No. 159) [Ac-Arg-cyclo(Dab-Gln-D-Phe-Arg-Trp-hGlu)-NH2] | 4 | 4 | 133 | 26 | 98 | 0.825 | 99 | binding selectivity, MC4-R against MC1-R [10]: ≥ 20 fold
5 | Ac-R[Aad]N[dF]RW[Dab]-NH2 (lactam 2-7, also called peptide No. 160) [Ac-Arg-cyclo(hGlu-Asn-D-Phe-Arg-Trp-Dab)-NH2] | 8 | 8 | 295 | – | – | 0.245 | 98 | –
6 | Ac-R[Dab]H[dF]RW[Aad]-NH2 (lactam 2-7) [Ac-Arg-cyclo(Dab-His-D-Phe-Arg-Trp-hGlu)-NH2] | – | – | – | – | – | – | – | intrinsic activity (cAMP; NDP-α-MSH = 100%) [5]: 95%
7 | Ac-R[Orn][Dab][dF]RWE-NH2 (lactam 2-7, also called peptide No. 119) [Ac-Arg-cyclo(Orn-Dab-D-Phe-Arg-Trp-Glu)-NH2] | – | – | – | – | – | – | – | Ki [1]: 3 nM
8 | RKNFRXD (HELM PEPTIDE1{[ac].R.K.N.[dF].R.[O=C([C@H](Cc1ccc2ccccc2c1)N[*:1])[*:2]].D.[am]}$PEPTIDE1,PEPTIDE1,3:R3-8:R3$$$V2.0; SMILES CC(=O)N[C@@H](CCCNC(=N)N)C(=O)N[C@H]1CCCCNC(=O)C[C@@H](C(N)=O)NC(=O)[C@H](Cc2ccc3ccccc3c2)NC(=O)[C@H](CCCNC(=N)N)NC(=O)[C@@H](Cc2ccccc2)NC(=O)[C@H](CC(N)=O)NC1=O, also called peptide No. 162) [Ac-Arg-cyclo(Lys-Asn-D-Phe-Arg-Nal 2-Asp)-NH2] | 5 | 5 | 255 | 22 | 89 | 0.85 | 82 | binding selectivity, MC4-R against MC1-R [10]: ≥ 20 fold
9 | Ac-R[Orn]N[dF]RWE-NH2 (lactam 2-7, also called peptide No. 154) [Ac-Arg-cyclo(Orn-Asn-D-Phe-Arg-Trp-Glu)-NH2] | – | – | 688 | 25 | – | – | – | –
10 | Ac-R[Orn]Q[dF]RWE-NH2 (lactam 2-7) [Ac-Arg-cyclo(Orn-Gln-D-Phe-Arg-Trp-Glu)-NH2] | – | – | – | – | 89 | – | – | –
11 | Ac-[dR][Orn]Q[dF]RWE-NH2 (lactam 2-7) [Ac-D-Arg-cyclo(Orn-Gln-D-Phe-Arg-Trp-Glu)-NH2] | – | – | – | – | 85 | – | 89 | –
12 | Ac-[dR][Orn]N[dF]RWE-NH2 (lactam 2-7, also called peptide No. 156) [Ac-D-Arg-cyclo(Orn-Asn-D-Phe-Arg-Trp-Glu)-NH2] | – | – | 840 | 80 | 81 | – | – | –
13 | Ac-REN[dF]RW[Orn]-NH2 (lactam 2-7, also called peptide No. 161) [Ac-Arg-cyclo(Glu-Asn-D-Phe-Arg-Trp-Orn)-NH2] | 6 | 6 | 155 | 13 | 85 | 0.413 | 91 | binding selectivity, MC4-R against MC1-R [10]: ≥ 20 fold
14 | Ac-REH[dF]RW[Orn]-NHcPr (lactam 2-7, also called peptide No. 110) [Ac-Arg-cyclo(Glu-His-D-Phe-Arg-Trp-Orn)-NH-cyclopropyl] | – | – | – | – | – | – | – | Ki [1]: 1 nM
15 | Ac-REH[dF]RW[Orn]-NHEt (lactam 2-7, also called peptide No. 109) [Ac-Arg-cyclo(Glu-His-D-Phe-Arg-Trp-Orn)-NH-Et] | – | – | – | – | – | – | – | Ki [1]: 6 nM
16 | Ac-RKN[dF]RWD-NH2 (lactam 2-7) [Ac-Arg-cyclo(Lys-Asn-D-Phe-Arg-Trp-Asp)-NH2] | 5 | 5 | 240 | 14 | 91 | 0.189 | 97 | binding selectivity, MC4-R against MC1-R [10]: ≥ 20 fold
17 | Ac-RD[Pro(4R-2-Cl-Bzl)][dF]RWK-NH2 (lactam 2-7, also called peptide No. 123) [Ac-Arg-cyclo(Asp-Pro(4R-2-Cl-Bzl)-D-Phe-Arg-Trp-Lys)-NH2] | – | – | – | – | – | – | – | Ki [1]: 8 nM
18 | Ac-RDV[dF]RWK-NH2 (lactam 2-7, also called peptide No. 16) [Ac-Arg-cyclo(Asp-Val-D-Phe-Arg-Trp-Lys)-NH2] | – | – | – | – | – | – | – | Ki [2]: 1060 nM; Ki [3]: 323 nM; intrinsic activity (cAMP; NDP-α-MSH = 100%) [5]: 42%
19 | Ac-[dR]DQ[dF]RWK-NH2 (lactam 2-7, also called peptide No. 71) [Ac-D-Arg-cyclo(Asp-Gln-D-Phe-Arg-Trp-Lys)-NH2] | 45 | 45 | – | – | 88 | 2 | 89 | –
